Experimental data reported in patent US20260207669A1 (TIANJIN MEDICAL UNIVERSITY GENERAL HOSPITAL, published 2026).

T1: human BAFFR overexpressed on 293T cells (human, UniProt Q96RJ3 1-184)
T1 construct: whole, on cells
T1 sequence (looked up): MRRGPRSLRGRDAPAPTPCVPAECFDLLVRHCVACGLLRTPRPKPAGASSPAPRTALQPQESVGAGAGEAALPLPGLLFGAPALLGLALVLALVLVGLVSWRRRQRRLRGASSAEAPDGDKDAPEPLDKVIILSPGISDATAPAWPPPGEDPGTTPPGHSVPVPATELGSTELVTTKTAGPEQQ

B1: NB467-71 (Fc fusion)
chain: EVQVVESGGGLVQSGGSLRLSCVASGFNLDHYAIGWFRQIPGKEREGVSCISSGGDSTFYIDSVKGRFTISRDNAKNTVYLQMNSLKPEDTAVYHCAADVYYSGNYLYRSCNPHESKYWGQGTQVTVSS
notes: also called anti-BAFFR nanobody NB467-71; antibody NB467-71; not shown: Human IgG1 Fc fused to the VHH
B2: NB467-7 (Fc fusion)
chain: QVQLVESGGGSVHPGGSLRLSCAGSGFTLAGYAIGWFRQAPGKEREGVSCINSSGGSTYYADSVKGRFTISRDNAKNTVYLQMNSLKPEDTAVYYCAADVYYSGSYLYRSCNPTESKYWGQGTQVTVSS
notes: also called anti-BAFFR nanobody NB467-7; antibody NB467-7; not shown: Human IgG1 Fc fused to the VHH
B3: NB467-88 (Fc fusion)
chain: EVQVVESGGGLVQPGGSLRLSCAASGFRLNYYAIGWFRQAPGKEREGVSCISSGGDRIYYADSVKGRFTISRDNAKNTVYLQMNSLKPEDTAVYYCAADLYYSGSYYYRSCNPAESGYWGQGTQVTVSS
notes: also called anti-BAFFR nanobody NB467-88; antibody NB467-88; not shown: Human IgG1 Fc fused to the VHH

Each binder was assayed against T1, human BAFFR overexpressed on 293T cells (assay: flow cytometry on HEK-293T-BAFFR cells, anti-human Fc-647 secondary antibody).
Protocol: The cells were resuspended in a suitable volume of staining solution for flow cytometry, so that the final cell concentration per tube reached 2×10⁵ cells/mL.
The antibodies NB467-7, NB467-71, and NB467-88 produced in Example 1 and the control antibody were diluted to 200 nM, respectively. […] After incubation, the cells were washed once with a FACS buffer.
The anti-human FC-647 secondary antibody (Jackson, 109-605-003) was diluted according to the instructions, and 100 μL of the diluted secondary antibody was added to a sample tube. After uniform mixing, the system was incubated at 4° C. for 60 min. After incubation, the cells were washed 3 times with FACS, and the cell precipitate obtained by centrifugation was resuspended in 200 μL of PBS and detected by flow cytometry (Sony, SA3800).

| EC50 [nM] | Binder |
| --- | --- |
| 10.6 | B1 |
| 6.73 | B2 |
| 1.31 | B3 |
